The supplement of paper PMC9112550, “Optimization of the antimicrobial peptide Bac7 by deep mutational scanning” (BMC Biology, 2022)

Test system: Escherichia coli TOP10
Test: shrunken log2 fold change of peptide-encoding DNA abundance (4.5 h post-induction vs induction); higher = less antimicrobial activity (less host growth inhibition)
Settings: time post-induction: 4.5 h; library: site-saturation at positions 5, 18, 19, 20
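Note: peptides expressed intracellularly from a pBAD plasmid library in pooled LB shake-flask culture, induced with 0.3% L-arabinose, DNA abundance read by NGS, three biological replicates, DESeq2 with apeglm shrinkage.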

Sequence	shrunken log2 fold change
RRIRHRPPRLPRPRPRPDYQPRP	-0.0951
RRIRHRPPRLPRPRPRPDYWPRP	-0.187
RRIRHRPPRLPRPRPRPEATPRP	0.0573
RRIRHRPPRLPRPRPRPEAVPRP	-0.00144
RRIRHRPPRLPRPRPRPECLPRP	-0.00297
RRIRHRPPRLPRPRPRPECMPRP	-0.0379
RRIRHRPPRLPRPRPRPECYPRP	-0.0176
RRIRHRPPRLPRPRPRPEDCPRP	-0.0178
RRIRHRPPRLPRPRPRPEDLPRP	0.172
RRIRHRPPRLPRPRPRPEDRPRP	-0.0767
RRIRHRPPRLPRPRPRPEFSPRP	-0.246
RRIRHRPPRLPRPRPRPEGEPRP	0.0139
RRIRHRPPRLPRPRPRPEGNPRP	-0.0642
RRIRHRPPRLPRPRPRPEGPPRP	-0.0401
RRIRHRPPRLPRPRPRPEIFPRP	-0.0725
RRIRHRPPRLPRPRPRPEIPPRP	-0.111
RRIRHRPPRLPRPRPRPEKDPRP	-0.0422
RRIRHRPPRLPRPRPRPELNPRP	-0.098
RRIRHRPPRLPRPRPRPEMMPRP	-0.0229
RRIRHRPPRLPRPRPRPENQPRP	-0.243
RRIRHRPPRLPRPRPRPERKPRP	0.0547
RRIRHRPPRLPRPRPRPESKPRP	-0.135
RRIRHRPPRLPRPRPRPETAPRP	0.346
RRIRHRPPRLPRPRPRPETSPRP	0.0165
RRIRHRPPRLPRPRPRPEVRPRP	-0.00149

Sequence	shrunken log2 fold change
RRIRHRPPRLPRPRPRPEWAPRP	-0.0848
RRIRHRPPRLPRPRPRPEWNPRP	-0.294
RRIRHRPPRLPRPRPRPEYRPRP	-0.0136
RRIRHRPPRLPRPRPRPFDCPRP	-0.186
RRIRHRPPRLPRPRPRPFDMPRP	-0.00783
RRIRHRPPRLPRPRPRPFDYPRP	-0.0282
RRIRHRPPRLPRPRPRPFEIPRP	-0.0931
RRIRHRPPRLPRPRPRPFFLPRP	-0.238
RRIRHRPPRLPRPRPRPFIDPRP	-0.121
RRIRHRPPRLPRPRPRPFIIPRP	-0.00662
RRIRHRPPRLPRPRPRPFIMPRP	-0.505
RRIRHRPPRLPRPRPRPFKCPRP	-0.0134
RRIRHRPPRLPRPRPRPFMHPRP	-0.377
RRIRHRPPRLPRPRPRPFMTPRP	-0.188
RRIRHRPPRLPRPRPRPFNKPRP	-0.01
RRIRHRPPRLPRPRPRPFNVPRP	1.22
RRIRHRPPRLPRPRPRPFPEPRP	-0.104
RRIRHRPPRLPRPRPRPFPKPRP	0.0904
RRIRHRPPRLPRPRPRPFPLPRP	-0.0682
RRIRHRPPRLPRPRPRPFQFPRP	0.0952
RRIRHRPPRLPRPRPRPFQWPRP	-0.139
RRIRHRPPRLPRPRPRPFRMPRP	-0.625
RRIRHRPPRLPRPRPRPFSAPRP	-0.186
RRIRHRPPRLPRPRPRPFSPPRP	0.0457
RRIRHRPPRLPRPRPRPFSRPRP	-0.0618

Sequence	shrunken log2 fold change
RRIRHRPPRLPRPRPRPFSTPRP	-0.304
RRIRHRPPRLPRPRPRPFTNPRP	-0.0272
RRIRHRPPRLPRPRPRPFVSPRP	-0.19
RRIRHRPPRLPRPRPRPFVTPRP	-0.188
RRIRHRPPRLPRPRPRPFWDPRP	-0.0244
RRIRHRPPRLPRPRPRPFYDPRP	-0.837
RRIRHRPPRLPRPRPRPGACPRP	0.203
RRIRHRPPRLPRPRPRPGAFPRP	0.175
RRIRHRPPRLPRPRPRPGALPRP	-0.00348
RRIRHRPPRLPRPRPRPGAVPRP	0.433
RRIRHRPPRLPRPRPRPGDIPRP	-0.412
RRIRHRPPRLPRPRPRPGEIPRP	0.761
RRIRHRPPRLPRPRPRPGFAPRP	0.142
RRIRHRPPRLPRPRPRPGFIPRP	0.043
RRIRHRPPRLPRPRPRPGFMPRP	0.0294
RRIRHRPPRLPRPRPRPGFPPRP	0.336
RRIRHRPPRLPRPRPRPGHIPRP	-0.282
RRIRHRPPRLPRPRPRPGIGPRP	-0.0787
RRIRHRPPRLPRPRPRPGITPRP	-0.453
RRIRHRPPRLPRPRPRPGKCPRP	-0.00911
RRIRHRPPRLPRPRPRPGLQPRP	0.157
RRIRHRPPRLPRPRPRPGMHPRP	-0.01
RRIRHRPPRLPRPRPRPGMTPRP	-0.039
RRIRHRPPRLPRPRPRPGNAPRP	0.137
RRIRHRPPRLPRPRPRPGNFPRP	-0.537

Sequence	shrunken log2 fold change
RRIRHRPPRLPRPRPRPGRRPRP	0.525
RRIRHRPPRLPRPRPRPGSGPRP	0.0563
RRIRHRPPRLPRPRPRPGTHPRP	0.0646
RRIRHRPPRLPRPRPRPGTIPRP	-0.00536
RRIRHRPPRLPRPRPRPGVMPRP	-0.0309
RRIRHRPPRLPRPRPRPGVSPRP	0.0185
RRIRHRPPRLPRPRPRPGWEPRP	0.274
RRIRHRPPRLPRPRPRPGWKPRP	0.0976
RRIRHRPPRLPRPRPRPGYWPRP	-0.151
RRIRHRPPRLPRPRPRPHAQPRP	0.0272
RRIRHRPPRLPRPRPRPHATPRP	0.0228
RRIRHRPPRLPRPRPRPHCQPRP	-0.0776
RRIRHRPPRLPRPRPRPHCSPRP	-0.124
RRIRHRPPRLPRPRPRPHDKPRP	-0.293
RRIRHRPPRLPRPRPRPHDTPRP	-1.08
RRIRHRPPRLPRPRPRPHEDPRP	0.0316
RRIRHRPPRLPRPRPRPHELPRP	-0.126
RRIRHRPPRLPRPRPRPHEPPRP	-0.0274
RRIRHRPPRLPRPRPRPHGDPRP	-0.01
RRIRHRPPRLPRPRPRPHGLPRP	0.15
RRIRHRPPRLPRPRPRPHHTPRP	-0.71
RRIRHRPPRLPRPRPRPHIGPRP	-0.0123
RRIRHRPPRLPRPRPRPHKPPRP	0.0188
RRIRHRPPRLPRPRPRPHNAPRP	-0.809
RRIRHRPPRLPRPRPRPHNNPRP	-0.714

Sequence	shrunken log2 fold change
RRIRHRPPRLPRPRPRPHNQPRP	-0.521
RRIRHRPPRLPRPRPRPHQNPRP	-0.494
RRIRHRPPRLPRPRPRPHQSPRP	-0.0258
RRIRHRPPRLPRPRPRPHRNPRP	-0.117
RRIRHRPPRLPRPRPRPHRVPRP	0.0179
RRIRHRPPRLPRPRPRPHSRPRP	0.0183
RRIRHRPPRLPRPRPRPHTKPRP	-0.0831
RRIRHRPPRLPRPRPRPHTMPRP	-0.0685
RRIRHRPPRLPRPRPRPHTTPRP	-0.491
RRIRHRPPRLPRPRPRPHYLPRP	0.0305
RRIRHRPPRLPRPRPRPIACPRP	0.0428
RRIRHRPPRLPRPRPRPIAQPRP	-0.0267
RRIRHRPPRLPRPRPRPICFPRP	-0.114
RRIRHRPPRLPRPRPRPICKPRP	-0.204
RRIRHRPPRLPRPRPRPIDFPRP	0.0271
RRIRHRPPRLPRPRPRPIDTPRP	-0.291
RRIRHRPPRLPRPRPRPIEDPRP	0.0058
RRIRHRPPRLPRPRPRPIENPRP	-0.143
RRIRHRPPRLPRPRPRPIKCPRP	-0.87
RRIRHRPPRLPRPRPRPIKMPRP	-0.0865
RRIRHRPPRLPRPRPRPIKVPRP	0.172
RRIRHRPPRLPRPRPRPILNPRP	-0.186
RRIRHRPPRLPRPRPRPINGPRP	-0.437
RRIRHRPPRLPRPRPRPIPLPRP	-0.193
RRIRHRPPRLPRPRPRPIPRPRP	-0.0447

Sequence	shrunken log2 fold change
RRIRHRPPRLPRPRPRPIQQPRP	-0.15
RRIRHRPPRLPRPRPRPISPPRP	-0.256
RRIRHRPPRLPRPRPRPISSPRP	-0.202
RRIRHRPPRLPRPRPRPISTPRP	-0.578
RRIRHRPPRLPRPRPRPITSPRP	-0.401
RRIRHRPPRLPRPRPRPIWAPRP	0.0355
RRIRHRPPRLPRPRPRPIWGPRP	0.226
RRIRHRPPRLPRPRPRPIWKPRP	-0.0276
RRIRHRPPRLPRPRPRPIYQPRP	-0.316
RRIRHRPPRLPRPRPRPIYWPRP	-0.181
RRIRHRPPRLPRPRPRPKDDPRP	-0.152
RRIRHRPPRLPRPRPRPKDVPRP	0.0703
RRIRHRPPRLPRPRPRPKERPRP	-0.0122
RRIRHRPPRLPRPRPRPKFHPRP	-0.429
RRIRHRPPRLPRPRPRPKLFPRP	0.0628
RRIRHRPPRLPRPRPRPKLKPRP	-0.0873
RRIRHRPPRLPRPRPRPKMNPRP	-0.487
RRIRHRPPRLPRPRPRPKNSPRP	-0.487
RRIRHRPPRLPRPRPRPKNVPRP	-0.0354
RRIRHRPPRLPRPRPRPKPMPRP	0.223
RRIRHRPPRLPRPRPRPKPRPRP	0.177
RRIRHRPPRLPRPRPRPKPVPRP	0.239
RRIRHRPPRLPRPRPRPKPWPRP	0.528
RRIRHRPPRLPRPRPRPKRMPRP	0.101
RRIRHRPPRLPRPRPRPKSTPRP	-0.0868
